Results on 22 molecules are retold here after US20220177587A1, “METHODS AND USES OF VARIANT CD80 FUSION PROTEINS AND RELATED CONSTRUCTS” (Alpine Immune Sciences, Inc., priority 2018, published 2022).

Residue numbers refer to the chain shown, from its start. Names and notes keep the numbering of the source.

The labels stand for the following.
B1: A26E/E35D/M47L/A71G (protein)
chain: VIHVTKEVKEVATLSCGHNVSVEELEQTRIYWQKDKKMVLTMMSGDLNIWPEYKNRTIFDITNNLSIVILGLRPSDEGTYECVVLKYEKDAFKREHLAEVTLSVKAD
B2: E35D/M47I/Y87Q/K89E (protein, UniProt P33681 35-288, looked up, variant E35D M47I Y87Q K89E)
T-lymphocyte activation …: VIHVTKEVKEVATLSCGHNVSVEELAQTRIYWQKDKKMVLTMMSGDINIWPEYKNRTIFDITNNLSIVILALRPSDEGTYECVVLKQEEDAFKREHLAEVTLSVKADFPTPSISDFEIPTSNIRRIICSTSGGFPEPHLSWLENGEELNAINTTVSQDPETELYAVSSKLDFNMTTNHSFMCLIKYGHLRVNQTFNWNTTKQEHFPDNLLPSWAITLISVNGIFVICCLTYCFAPRCRERRRNERLRRESVRPV
B3: E35D/M47V/N48T/L85Q (protein, UniProt P33681 35-288, looked up, variant E35D M47V N48T L85Q)
T-lymphocyte activation …: B2 T-lymphocyte activation … with I47V, N48T, L85Q, Q87Y, E89K
B4: E35D/T41S/M47V/A71G/K89N (protein, UniProt P33681 35-288, looked up, variant E35D T41S M47V A71G K89N)
T-lymphocyte activation …: B2 T-lymphocyte activation … with T41S, I47V, A71G, Q87Y, E89N
B5: E35D/M38T/D46E/M47V/N48S (protein, UniProt P33681 35-288, looked up, variant E35D M38T D46E M47V N48S)
T-lymphocyte activation …: B2 T-lymphocyte activation … with M38T, D46E, I47V, N48S, Q87Y, E89K
B6: E35D/M47V/A71G/E88D (protein, UniProt P33681 35-288, looked up, variant E35D M47V A71G E88D)
T-lymphocyte activation …: B2 T-lymphocyte activation … with I47V, A71G, Q87Y, E88D, E89K
B7: E35D/L85Q/K93T/E95V/L97Q (protein, UniProt P33681 35-288, looked up, variant E35D L85Q K93T E95V L97Q)
T-lymphocyte activation …: B2 T-lymphocyte activation … with I47M, L85Q, Q87Y, E89K, K93T, E95V, L97Q
B8: Q27H/E35D/D46V/M47L/A71G (protein, UniProt P33681 35-288, looked up, variant Q27H E35D D46V M47L A71G)
T-lymphocyte activation …: B2 T-lymphocyte activation … with Q27H, D46V, I47L, A71G, Q87Y, E89K
B9: E35D/T41S/M43I/M47L/A71G (protein, UniProt P33681 35-288, looked up, variant E35D T41S M43I M47L A71G)
T-lymphocyte activation …: B2 T-lymphocyte activation … with T41S, M43I, I47L, A71G, Q87Y, E89K
B10: E35D/M47L/A71G/L85Q (protein, UniProt P33681 35-288, looked up, variant E35D M47L A71G L85Q)
T-lymphocyte activation …: B2 T-lymphocyte activation … with I47L, A71G, L85Q, Q87Y, E89K
B11: Q33R/E35D/M47V/N48K/L85M/F92L (protein, UniProt P33681 35-288, looked up, variant Q33R E35D M47V N48K L85M F92L)
T-lymphocyte activation …: B2 T-lymphocyte activation … with Q33R, I47V, N48K, L85M, Q87Y, E89K, F92L
modifications: Fc fusion
B12: E35D/M43I/M47V/K89N (protein, UniProt P33681 35-288, looked up, variant E35D M43I M47V K89N)
T-lymphocyte activation …: B2 T-lymphocyte activation … with M43I, I47V, Q87Y, E89N
B13: E35D/A71D/L72V/R73H/E81K (protein, UniProt P33681 35-288, looked up, variant E35D A71D L72V R73H E81K)
T-lymphocyte activation …: B2 T-lymphocyte activation … with I47M, A71D, L72V, R73H, E81K, Q87Y, E89K
B14: E35D/M38T/M43V/M47V/N48R/L85Q (protein, UniProt P33681 35-288, looked up, variant E35D M38T M43V M47V N48R L85Q)
T-lymphocyte activation …: B2 T-lymphocyte activation … with M38T, M43V, I47V, N48R, L85Q, Q87Y, E89K
modifications: Fc fusion
B15: I30V/E35D/M47V/A71G/A91V (protein, UniProt P33681 35-288, looked up, variant I30V E35D M47V A71G A91V)
T-lymphocyte activation …: B2 T-lymphocyte activation … with I30V, I47V, A71G, Q87Y, E89K, A91V
B16: H18Y/E35D/N48K (protein, UniProt P33681 35-288, looked up, variant H18Y E35D N48K)
T-lymphocyte activation …: B2 T-lymphocyte activation … with H18Y, I47M, N48K, Q87Y, E89K
B17: E35D/D46E/M47V/A71D (protein, UniProt P33681 35-288, looked up, variant E35D D46E M47V A71D)
T-lymphocyte activation …: B2 T-lymphocyte activation … with D46E, I47V, A71D, Q87Y, E89K
B18: E35D/M47V/A71G (protein, UniProt P33681 35-288, looked up, variant E35D M47V A71G)
T-lymphocyte activation …: B2 T-lymphocyte activation … with I47V, A71G, Q87Y, E89K
B19: E35D/A71G (protein, UniProt P33681 35-288, looked up, variant E35D A71G)
T-lymphocyte activation …: B2 T-lymphocyte activation … with I47M, A71G, Q87Y, E89K
B20: V22D/E35D/M47L/L85Q (protein)
chain: VIHVTKEVKEVATLSCGHNVSDEELAQTRIYWQKDKKMVLTMMSGDLNIWPEYKNRTIFDITNNLSIVILALRPSDEGTYECVVQKYEKDAFKREHLAEVTLSVKADFPTPSISDFETPTSNIRRIICSTSGGFPEPHLSWLENGEELNAINTTVSQDPETELYAVSSKLDFNMTTNHSFMCLIKYGHLRVNQTFNWNTTKQEHFPDN
modifications: CD80 v261 ECD
B21: V22D/E35D/M47L/L70M/L97Q (protein)
chain: B20 chain with L70M, Q85L, L97Q
modifications: CD80 v283 ECD
B22: T28Y/Q33H/E35D/D46V/M47I/A71G (protein)
chain: B20 chain with D22V, T28Y, Q33H, D46V, L47I, A71G, Q85L
modifications: CD80 v291 ECD

Sequence of huCTLA4 (P16410 36-223): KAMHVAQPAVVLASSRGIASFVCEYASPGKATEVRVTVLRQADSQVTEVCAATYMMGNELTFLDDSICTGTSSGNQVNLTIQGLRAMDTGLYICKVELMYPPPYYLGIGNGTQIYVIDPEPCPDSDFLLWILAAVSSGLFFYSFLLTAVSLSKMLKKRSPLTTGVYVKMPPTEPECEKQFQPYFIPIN
Sequence of huPD-L1 (Q9NZQ7 19-290): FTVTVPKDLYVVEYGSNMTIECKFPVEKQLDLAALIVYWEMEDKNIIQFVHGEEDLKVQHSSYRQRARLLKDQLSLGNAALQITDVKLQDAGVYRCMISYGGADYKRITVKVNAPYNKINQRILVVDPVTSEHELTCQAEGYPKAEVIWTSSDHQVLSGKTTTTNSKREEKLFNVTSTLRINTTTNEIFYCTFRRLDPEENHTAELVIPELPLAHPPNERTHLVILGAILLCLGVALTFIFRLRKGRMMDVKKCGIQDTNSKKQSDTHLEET

The first assay concerns the target T1, CD28 (Homo sapiens, UniProt P10747). In words: Jurkat/IL2 + CHO/OKT3 +/- PD-L1 reporter assay: PD-L1-dependent CD28 costimulation. Also noted: host or cells: Jurkat cells expressing an IL-2-luciferase reporter. The format is cell-based. The note with it: Table E22; Jurkat/IL2 + CHO/OKT3/PD-L1; CD80 Conc 5.0 nM. In short, it runs like this: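 Jurkat reporter cells (100,000/well) preincubated 15 min at room temperature with test protein, then cocultured 5 h at 37 °C with CHO aAPCs bearing anti-CD3 scFv (OKT3) with or without PD-L1. Luciferase luminescence (RLU) read after lysis-substrate addition.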
For the molecule B1, the “Relative Luciferase Units (RLU), CD80 Conc 5.0 nM” value was determined as 766 RLU.

The next assay deals with T1, CD28. Briefly: Jurkat/IL2 + K562/OKT3/PD-L1 reporter assay. Also noted: host or cells: Jurkat cells expressing an IL-2-luciferase reporter. The note with it: Table E8; K562/OKT3/PD-L1 aAPC; 50 nM. The format is cell-based.
Take B1: the “Relative Luciferase Units (RLU), CD80-Fe Cone 50 nM” value is 1748 RLU.
B2: the “Relative Luciferase Units (RLU), CD80-Fe Cone 50 nM” value is listed as 1581 RLU.
Take B3: the “Fold Increase over WT CD80-IgV-Fe” value was 4.4 and the “Relative Luciferase Units (RLU), CD80-Fe Cone 50 nM” value is listed as 897 RLU.
For the molecule B4, the “Relative Luciferase Units (RLU), CD80-Fe Cone 50 nM” value is reported as 1023 RLU.
In the case of B5, the “Relative Luciferase Units (RLU), CD80-Fe Cone 50 nM” value is given as 1315 RLU.
Take B6: the “Relative Luciferase Units (RLU), CD80-Fe Cone 50 nM” value is 1216 RLU.
Turning to B7, the “Fold Increase over WT CD80-IgV-Fe” value is listed as 1.5 and the “Relative Luciferase Units (RLU), CD80-Fe Cone 50 nM” value worked out at 315 RLU.
On to B8, for which the “Relative Luciferase Units (RLU), CD80-Fe Cone 50 nM” value came out at 978 RLU.
B9: the “Relative Luciferase Units (RLU), CD80-Fe Cone 50 nM” value came out at 1535 RLU.
Consider B10, for which the “Relative Luciferase Units (RLU), CD80-Fe Cone 50 nM” value came out at 1256 RLU.
As for B11, the “Relative Luciferase Units (RLU), CD80-Fe Cone 50 nM” value was 215 RLU.
For B12, the “Relative Luciferase Units (RLU), CD80-Fe Cone 50 nM” value came to 1094 RLU.
Regarding B13, the “Relative Luciferase Units (RLU), CD80-Fe Cone 50 nM” value is on record as 282 RLU.
As for B14, the “Fold Increase over WT CD80-IgV-Fe” value is 3.3 and the “Relative Luciferase Units (RLU), CD80-Fe Cone 50 nM” value is on record as 680 RLU.
As to B15, the “Relative Luciferase Units (RLU), CD80-Fe Cone 50 nM” value came out at 1503 RLU.
With B16, the “Relative Luciferase Units (RLU), CD80-Fe Cone 50 nM” value amounted to 1230 RLU.
Turning to B17, the “Relative Luciferase Units (RLU), CD80-Fe Cone 50 nM” value turned out to be 683 RLU.
Consider B18, for which the “Relative Luciferase Units (RLU), CD80-Fe Cone 50 nM” value was 1190 RLU.
For B19, the “Relative Luciferase Units (RLU), CD80-Fe Cone 50 nM” value is reported as 1190 RLU.
As to B20, the “Relative Luciferase Units (RLU), CD80-Fe Cone 50 nM” value turned out to be 1142 RLU.
As to B21, the “Relative Luciferase Units (RLU), CD80-Fe Cone 50 nM” value was determined as 1542 RLU.
For B22, the “Fold Increase over WT CD80-IgV-Fe” value is given as 2.8 and the “Relative Luciferase Units (RLU), CD80-Fe Cone 50 nM” value was determined as 580 RLU.

A further assay addresses huPD-L1 (Homo sapiens, UniProt Q9NZQ7). In words: Flow binding to CHO cells stably expressing PD-L1. The note with it: Table E4; 33.3 nM; CHO cells stably expressing PD-L1. Also noted: huCTLA4 and huPD-L1, full-length mammalian surface expression constructs were generated; expressed in transfected cells; host or cells: CHO cells, lentiviral transduction, sorted to >98% purity. The essentials: (§1)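 Fusion proteins bound to CHO cells stably expressing CTLA4 or PD-L1, or to Jurkat/IL2 reporter cells with endogenous CD28, for 45 min on ice after blocking in PBS/1% BSA. Detection with PE anti-human Fc by flow cytometry; PE MFI per cell type and binding EC50 determined.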
Consider B2, for which the “PD-L1 MFI at 33.3 nM” value was 29803.
B6: the “PD-L1 MFI at 33.3 nM” value is listed as 37146.
The same measure, in the same setting: as for B12, the figure is 19250.
Same read-out and setting: then B18, with 36216; and B19, with 34149.

For another assay, the target named is T1, CD28. In words: Flow binding to Jurkat/IL2 reporter cells (CD28). Also noted: host or cells: Jurkat cells expressing an IL-2-luciferase reporter. The note with it: Table E4; 33.3 nM; Jurkat cells (CD28). The essentials:
as §1
For B1, the “CD28 MFI at 33.3 nM” value was 2161.
With B2, the “CD28 MFI at 33.3 nM” value was found to be 15452.
Still for that read-out and setting: then B6, with 6237; and B10, with 1436.
The same measure, in the same setting: then B18, with 6360; and B20, with 542.

Still in this assay, the particulars now being: Table E20; Jurkats (CD28); 33.3 nM.
As to B1, the “CD28 MFI at 33.3 nM” value was 236.

The next assay addresses huCTLA4 (Homo sapiens, UniProt P16410). Briefly: Flow binding to CHO cells stably expressing CTLA4. The note with it: Table E4; 33.3 nM variant CD80 IgV-Fc; CHO cells stably expressing CTLA4. Also noted: huCTLA4 and huPD-L1, full-length mammalian surface expression constructs were generated; expressed in transfected cells; host or cells: CHO cells, lentiviral transduction, sorted to >98% purity. The essentials: as §1
Turning to B9, the “CTLA4 MFI at 33.3 nM” value is listed as 209034.
With B11, the “CTLA4 MFI at 33.3 nM” value was 2680.
As to B12, the “CTLA4 MFI at 33.3 nM” value stood at 278391.
In the case of B15, the “CTLA4 MFI at 33.3 nM” value worked out at 204756.
For the molecule B19, the “CTLA4 MFI at 33.3 nM” value amounted to 184204.
